Results from paper PMC12748864, “Potent neutralization by antibodies targeting the MPXV A28 protein” (Nature Communications, 2025).

B1: mAb 10M2146 (human IgG1, anti-A28) (antibody, V domains shown)
VH: EVQLVQSGAEVKKPGESLKISCKGSGYSFTTHWIGWVRQMPGEGLEWLGIIYPGDSETKYSPSFQGQVTISVDKSINTAYLHWSSLKASDTAMYFCARRPKNYYDASGYYNWLDPWGQGTLVTVSS
VL: EIQMTQSPSTLSASVGDRVTITCRASQSLSTWLAWYQQKPGKAPKLLIYKASILESGVPSRFSASGSGTEFTLTISGLQPDDFATYYCQQYNSYLGAFGQGTKVEIK
B2: Fab 10M2146 (Fab, V domains shown)
VH: B1 VH
VL: B1 VL
notes: also called 10M2146 F(ab)
B3: Germline 1 (germline-reverted 10M2146 / 10M2154) (antibody, V domains shown)
VH: EVQLVQSGAEVKKPGESLKISCKGSGYSFTSYWIGWVRQMPGKGLEWMGIIYPGDSDTRYSPSFQGQVTISADKSISTAYLQWSSLKASDTAMYYCARRPKYYYDSSGYYNWLDPWGQGTLVTVSS
VL: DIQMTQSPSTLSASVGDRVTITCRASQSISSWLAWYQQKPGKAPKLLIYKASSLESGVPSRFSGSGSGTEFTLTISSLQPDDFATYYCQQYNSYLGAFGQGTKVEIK

Key:
Conditions in all cases: both partners purified
[1] = biological target: MPXV A28 (OPG153), residues 2-361 (Monkeypox virus, template GenBank …, UniProt A0A7H0DNC4); assay: ELISA
[2] = biological target: T1, VACV A26 (OPG153), residues 2-361 (Vaccinia virus strain IHDW, template …, UniProt P24758, strain); assay: ELISA
T1 construct: also called VACV homolog of A28

[3] = biological target: T2, VACV A26 head domain (amino acids 1-397), strain Western Reserve (Vaccinia virus (strain Western Reserve), UniProt P24758); assay: crystal structure
T2 construct: also called residues 1-397 of A26

Sequence of MPXV A28 (OPG153), residues 2-361 (A0A7H0DNC4 whole entry, looked up, the tested form may be a part): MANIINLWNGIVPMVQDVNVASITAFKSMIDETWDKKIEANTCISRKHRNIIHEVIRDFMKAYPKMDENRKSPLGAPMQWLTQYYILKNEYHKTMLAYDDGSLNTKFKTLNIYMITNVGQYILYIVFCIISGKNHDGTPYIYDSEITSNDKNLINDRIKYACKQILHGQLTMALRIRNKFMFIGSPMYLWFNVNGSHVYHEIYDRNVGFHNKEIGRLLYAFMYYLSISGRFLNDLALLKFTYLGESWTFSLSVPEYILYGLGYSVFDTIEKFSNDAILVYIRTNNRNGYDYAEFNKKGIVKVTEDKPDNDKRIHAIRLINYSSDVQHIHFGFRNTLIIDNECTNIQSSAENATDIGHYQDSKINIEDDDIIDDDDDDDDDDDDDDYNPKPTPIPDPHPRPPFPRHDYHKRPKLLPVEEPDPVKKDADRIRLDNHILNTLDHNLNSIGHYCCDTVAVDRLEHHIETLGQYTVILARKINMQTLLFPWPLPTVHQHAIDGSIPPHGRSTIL

Row | Binder | binding result [1] | binding result [2] | binding result [3]
1 | B1 | binds | binds | –
2 | B2 | – | – | binds
3 | B3 | binds | binds | –
